Measured values: the supplement of paper PMC7877785
± gives the uncertainty stated by the source.

Assay: self-splicing fitness, log relative to wild type (ln ratio); higher = more splicing; Tetrahymena group I intron in knt gene, E. coli kanamycin selection, DiMSum; sequences stand for … in CUCUCU…GGAGGGAAAAGUUAUCAGGCAUGCACCUGGUAGCUAGUCUUUAAACCAAUAGAUUGCAUCGGUUUAAAAGGCAAGACCGUCAAAUUGCGGGAAAGGGGUCAACAGCCGUUCAGUACCAAGUCUCAGGGGAAACUUUGAGAUGGCCUUGCAAAGGGUAUGGUAAUAAGCUGACGGACAUGGUCCUAACCACGCAGCCAAGUCCUAAGUCAACAGAUCUUCUGUUGAUAUGGAUGCAGUUCACAGACUAAAUGUCGGUCGGGGAAGAUGUAUUCUUCUCAUAAGAUAUAGUCGGACCUCUCCUUAAUGGGAGCUAGCGGAUGAAGUGAUGCAACACUGGAGCCGCUGGGAACUAAUUUGUAUGCGAAAGUAUAUUGAUUAGUUUUGGAGUACUCGUGGUCG
Summary of the method: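 Fitness was computed with DiMSum as the error-weighted combination of replicate fold changes, kanamycin versus none, each normalised to wild type. The library randomised all eight intron nucleotides of the P1ex region, with the intron placed in the knt kanamycin-resistance gene on pET-22b(+) in E. coli BL21(DE3). Six replicate transformations were grown overnight at 37°C or 30°C on LB agar with or without 25 μg/mL kanamycin, plus 100 μg/mL carbenicillin, 50 μM IPTG and 0.2% rhamnose. Pooled colonies were amplicon-sequenced on an Illumina HiSeq 2500.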

Row | Sequence | self-splicing fitness (ln) (30 °C) | self-splicing fitness (ln) (37 °C)
1 | CGCCAGCAAUAUUACGACGU | -1.71 ± 0.076 | -1.5 ± 0.094
2 | AGUAAGCAAUAUUACGCGCU | -2.64 ± 0.28 | -2.1 ± 0.4
3 | CUAGAGCAAUAUUACGACUU | -4.26 ± 0.27 | -2.51 ± 0.25
4 | AAUUAGCAAUAUUACGGAUU | -2.2 ± 0.12 | -1.3 ± 0.14
5 | CAACAGCAAUAUUACGAACU | -3.29 ± 0.15 | -0.988 ± 0.11
6 | GACGAGCAAUAUUACGGAGA |  | -2.9 ± 0.38
7 | GUCCAGCAAUAUUACGCAAC | -0.987 ± 0.099 | -0.844 ± 0.11
8 | AGGCAGCAAUAUUACGUCGU | -0.986 ± 0.058 | -0.962 ± 0.088
9 | GAAGAGCAAUAUUACGAGGC |  | -1.8 ± 0.41
10 | UGUGAGCAAUAUUACGAGGC | -3.2 ± 0.28 | -3.1 ± 0.36
11 | UGCAAGCAAUAUUACGACGU | -1.76 ± 0.1 | -1.1 ± 0.13
12 | UCAGAGCAAUAUUACGCUUC | -1.74 ± 0.24 | -2.73 ± 0.48
13 | CGUUAGCAAUAUUACGAUGA | -1.79 ± 0.13 | -0.842 ± 0.13
14 | GCAGAGCAAUAUUACGGAGC | -2.89 ± 0.28 | -2.84 ± 0.28
15 | CCCGAGCAAUAUUACGGCCA | -2.88 ± 0.23 | -3.57 ± 0.28
16 | CAACAGCAAUAUUACGAAAU | -2.7 ± 0.12 | -2.47 ± 0.2
17 | UGCAAGCAAUAUUACGAACC | -1.15 ± 0.15 | -0.525 ± 0.17

Row | Sequence | self-splicing fitness (ln) (30 °C) | self-splicing fitness (ln) (37 °C)
18 | AAGCAGCAAUAUUACGAAGC | -3.33 ± 0.29 | -1.93 ± 0.27
19 | CUGAAGCAAUAUUACGUGUG | -0.196 ± 0.046 | -0.0989 ± 0.067
20 | AUCUAGCAAUAUUACGGCUA | -3.6 ± 0.28 | -2.4 ± 0.23
21 | CGAUAGCAAUAUUACGAGAU | -4.01 ± 0.39 | -2.73 ± 0.25
22 | AUGCAGCAAUAUUACGACAC | -0.537 ± 0.077 | 0.312 ± 0.11
23 | AUUCAGCAAUAUUACGGUAU | -0.934 ± 0.065 | -0.155 ± 0.073
24 | GCAGAGCAAUAUUACGUCCG | -2.57 ± 0.14 | -2.51 ± 0.17
25 | GUUAAGCAAUAUUACGACCU | -0.481 ± 0.14 | -0.37 ± 0.2
26 | UGCUAGCAAUAUUACGAGGU | -2.94 ± 0.27 | -3.27 ± 0.39
27 | GACAAGCAAUAUUACGCCUU | -1.15 ± 0.14 | -1.04 ± 0.13
28 | ACCGAGCAAUAUUACGAUGU | -2.71 ± 0.12 | -1.86 ± 0.12
29 | GCAGAGCAAUAUUACGUCUU | -0.897 ± 0.12 | -2.22 ± 0.21
30 | CCUGAGCAAUAUUACGCCUC | -2.22 ± 0.29 | -1.88 ± 0.3
31 | GGUGAGCAAUAUUACGGUGA | -2.81 ± 0.23 | -1.28 ± 0.21
32 | UAAGAGCAAUAUUACGUCAU | -2.21 ± 0.14 | -2.22 ± 0.24
33 | GGAGAGCAAUAUUACGAAUU | -3.13 ± 0.49 | -2.27 ± 0.4
34 | UGGCAGCAAUAUUACGUUAC | -4.11 ± 0.46 | -2.46 ± 0.25
